Results taken from patent US12139534B2, “Methods and compositions for decreasing soluble immune receptor CD28” (BIOND BIOLOGICS LTD., priority 2018, dated 2024).

Columns and labels:
[1] = system: human PBMCs; experiment: Soluble CD28 generation by SEB or CMV stimulated PBMCs, human CD28 ELISA; format: cell-based; conditions: for sCD28 levels detected with antibodies of the invention: stimulated cells with protease inhibitors, sandwich ELISA; for amount of sCD28 in culture: PBMCs stimulated with SEB or CMV, TAPI-1 and GM6001 protease inhibitor cocktail
Experimental: (§1) ELISA—Commercial ELISA kits were used for quantitation of the amount of human interferon-gamma (Biolegend, Cat. No. 430103), human interleukin 2 (Biolegend, Cat. No. 431802), human interleukin 6 (Biolegend, Cat. No. 430502), human interleukin 10 (Biolegend, Cat. No. 430603), human […] beta 1 (Biolegend, Cat. No. 436708), human interleukin beta 1 (Biolegend, Cat. No. 437004) and human CD28 (R&D system, Cat. No. DY342). Cell Proliferation and viability (MTT assay) was conducted according to manufacturer instructions (Roche, cat #11465007001). Kynurenine (IDO activity) ELISA kit was conducted according to manufacturer instructions (ImmuSmo Cat #BA E-2200).
(§2) Protease Inhibitors—Protease inhibitors were added at the indicated concentrations at the start of each experiment. In week long assays another portion of the inhibitors was added after 3 days at the final concentration. […] Where mentioned the protease cocktail was composed with a mixture of TAPI-1 and GM6001 at equimolar ratio.
SEB or CMV activation of PBMCs for the generation of soluble CD28—0.3×10^6 PBMCs were stimulated with 0.5 ng/mL SEB (Sigma, Cat. No. S4881) for 5-7 days at 37° C. with/without the indicated concentration of various protease inhibitors in 48 well plate. Alternatively, 0.1×10^6 PBMCs were stimulated with 0.5 ng/mL SEB in 96 well plate format assay. For CMV stimulation 0.5×10^6 PBMCs were stimulated with 0.5 μg/mL CMV peptivator (Milteny Biotec, Cat. No. 130-093-435) for 2-5 days at 37° C. with/without the indicated concentration of various protease inhibitors in a 96 well plate. For continuous shedding experiments PBMC were stimulated with SEB or CMV in 24 well plate for 24 hr, cells were taken and washed three times with RPMI without stimulant and plated again in a 96 well plate. Samples were taken at indicated times and put under freezing conditions until examination for soluble CD28.

[2] = system: Jurkat T cell line; experiment: Soluble CD28 generation by PHA activated Jurkat T cell line, CD28 ELISA; format: cell-based, human; conditions: PHA 1-4 μg/mL, TAPI-1 and GM6001 cocktail 0.5-2 μM
Experimental: as §1, §2
(§3) PHA activation of CD4 T cells or Jurkat T cell line for the generation of soluble CD28—1×10^5 Jurkat cells or CD4 T cells were incubated with the indicated concentration of Phytohemagglutinin (Sigma, Cat. No. L8902) and various protease inhibitors for additional 5 (Jurkat) or 7 days (CD4 T cells).

[3] = system: human CD4 T cells; experiment: Soluble CD28 generation by PHA activated CD4 T cells, CD28 ELISA; format: cell-based; conditions: PHA 1-4 μg/mL, TAPI-1 and GM6001 cocktail 0.5-2 μM
Experimental: as §1, §2, §3

[4] = system: isolated CD3 human T cells; experiment: CD3 T cells stimulation with anti-CD3 OKT3, IFN gamma secretion; format: cell-based; conditions: for IFNγ secretion (agonism): anti-CD3 stimulation, CD28.2 2.0 μg/mL, antibodies 0.1-10 μg/mL
Experimental: T cells stimulation with OKT3—0.1×10^6 isolated CD3 T cells (from healthy donors) were stimulated with indicated amount of anti-CD3 clone OKT3 for 48-72 hr at 37° C. When stated recombinant human CD80-Fc (2 μg/mL, R&D system) was added in soluble form. Antibodies to CD28 or controls were added at the indicated concentration in soluble form.
CD80 is one of the two main ligands for mCD28 along with CD86. The extracellular domain of CD80 fused to an Fc moiety has been used as an immune stimulatory molecule and is under investigation as a cancer therapy. In order to examine the effect of sCD28 on CD80-Fc efficacy, isolated CD3 human T cells were stimulated with plate bound anti-CD3 antibody (OKT3, 2 μg/mL) in the presence of 2 μg/mL soluble recombinant human CD80-Fc.

[5] = target: T1, mCD28 (Homo sapiens, UniProt P10747); experiment: CD86 blocking FACS on HEK293 cells stably transfected with human CD28; format: binding; conditions: CD86-Fc 5 μg/mL; antibody 20 μg/mL
T1 construct: expressed in transfected cells
Experimental: CD86 blocking FACS—0.5×10^6 HEK293 cells stably transfected with human CD28 were incubated with 5 μg/mL CD86-Fc (R&D systems, Cat. No. 141-B2) without or with anti CD28 antibodies (20 μg/mL) for 30 min in room temperature. Cells were washed and taken for secondary binding using anti-human heavy and light chains antibody conjugated to fluorophore at 1:5000 dilution for 20 min on ice.

[6] = target: T1, mCD28; experiment: FACS binding to mCD28 on naïve CD3 T cells; conditions: antibody 20 μg/mL
Experimental: Flow Cytometry—Generally, cells were kept on ice during all steps. Prior to staining, 5×10^5 cells were blocked with 50 μg/mL human IgG (Sigma, Cat. No. 14506) in FACS buffer (PBS with 0.1% BSA) for 15 min. Antibodies were used at concentrations recommended by the manufacturer and incubated for 30 min. in the dark. Incubations were done in a volume of 100 μL in 96-well U bottom plates. Cells were washed twice with 200 μL of FACS buffer and transferred to FACS tubes in 150 μL of FACS buffer for analysis. Cells were analyzed on a Gallios Flow Cytometer (Beckman Coulter) using the Kaluza for Gallios Flow Cytometry Acquisition Software.
Lastly, the ability of antibodies #1-3 to bind to mCD28 at all was examined. While it is not essential that a sCD28 antibody not bind mCD28 it is advantageous. Such an antibody could be used for specific detection of the soluble protein, and if used therapeutically would have no effect on the membranal form. Naïve isolated CD3 T cells were evaluated by FACs to assay mCD28 binding. Cells were incubated with antibodies #1-3 (20 μg/mL dark grey histograms) or isotype controls (mIgG, 20 μg/mL, light grey histograms). Binding detection was performed with Alexa Fluor 647-conjugated goat anti mouse secondary antibody.

[7] = target: T2, recombinant human CD28 (Homo sapiens, UniProt P10747); experiment: Direct CD28 ELISA on recombinant human CD28; format: binding
T2 construct: recombinant human CD28 lacking the transmembrane and cytoplasmic domains; purchased R&D 342-CD

[8] = system: sCD28; experiment: Simulated sweeping of soluble CD28 from plasma with antibody coated magnetic beads; set-up: species or system human; conditions: for sCD28 levels in plasma after beads: about 1.5 μg on beads
Experimental: Simulated sweeping of soluble CD28 from plasma of cancer patient. Antibodies or recombinant proteins were coated on tosyl-activated magnetic beads (Invitrogen, Cat. No. DY-14203) as described by manufacturer protocol. […] The mixture was incubated in a thermomixer for 2 hr, 1000 RPM at 37° C., followed by removal of the beads using a DynaMag magnet (Invitrogen, Cat. No. 12321D) and the samples were examined using CD28 specific ELISA.
Varying amounts (0.125-2 μg) of antibodies #1 and #2 were loaded onto tosyl-activated magnetic beads according to the manufacturer's protocol (Thermo Fisher Scientific). The loaded beads were then added to plasma samples from a cancer patient, and the mixture was incubated in a thermomixer at 37° C. for 2 hours at 1000 RPM. The beads were isolated and removed from the plasma with a magnet and the amount of sCD28 remaining in the serum was measured by ELISA.
Antibody #1 was further tested on various cancer samples (melanoma, colorectal and ovarian) and compared to three B7 molecules which are known ligands of CD28. About 1.5 μg of antibody #1, CD80, CD86 and ICOSL were each loaded onto tosyl-activated magnetic beads and the beads were mixed with plasma as before. A colorectal sample (FIG. 16C), as well as two melanoma samples (FIG. 16D-E), an ovarian sample (FIG. 16F) and a sample from a healthy donor (FIG. 16G) were all tested.

`CNC(=O)[C@@H](NC(=O)[C@H](CCCc1ccccc1)[C@H](C)N(O)C=O)C(C)(C)C` [GI254023X] was tested, and the “sCD28 release from activated immune cells” value ([1]; PBMCs, SEB 1 ng/mL, inhibitor 0.01-1 μM) was “almost complete inhibition of sCD28 release” and the “sCD28 levels detected with antibodies of the invention” value [1] was “Lower levels of sCD28”.

`CNC(=O)[C@H](Cc1c[nH]c2ccccc12)NC(=O)[C@@H](CC(=O)NO)CC(C)C` [GM6001] was tested, and the “amount of sCD28 in culture” value [1] was “diminish the amount of sCD28 in a dose dependent manner”, the “amount of sCD28 in supernatant” value [2] was “diminished the amount of sCD28” and the “amount of sCD28 in supernatant” value [3] was “diminished the amount of sCD28”.

For `CC(C)C[C@H](CC(=O)NO)C(=O)N[C@@H](Cc1ccc2ccccc2c1)C(=O)N[C@@H](C)C(=O)NCCN` [TAPI-1], the “amount of sCD28 in culture” value [1] was “diminish the amount of sCD28 in a dose dependent manner”, the “sCD28 levels detected with antibodies of the invention” value [1] was “Lower levels of sCD28” and the “amount of sCD28 in supernatant” value [2] was “diminished the amount of sCD28”. For the same molecule, the “amount of sCD28 in supernatant” value [3] was “diminished the amount of sCD28”.

B1: antibody #3: sCD28 binding (sweeping) antibody; heavy chain SEQ ID NO: 50, light chain SEQ ID NO: 52 (antibody)
heavy: EVQLQQFGAELVKPGASVKISCKASGYTFTDYNMDWVKQSHGKSLEWIGDINPNYDSTAYNQKFMGKATLTVDKSSNTAYMELRSLTSEDTAVYYCARSSPYYDSNHFDYWGQGTSLTVSSAKTTPPSVYPLAPGSAAQTNSMVTLGCLVKGYFPEPVTVTWNSGSLSSGVHTFPAVLQSDLYTLSSSVTVPSSTWPSETVTCNVAHPASSTKVDKKIVPRDCGCKPCICTVPEVSSVFIFPPKPKDVLTITLTPKVTCVVVDISKDDPEVQFSWFVDDVEVHTAQTQPREEQFNSTFRSVSELPIMHQDWLNGKEFKCRVNSAAFPAPIEKTISKTKGRPKAPQVYTIPPPKEQMAKDKVSLTCMITDFFPEDITVEWQWNGQPAENYKNTQPIMDTDGSYFVYSKLNVQKSNWEAGNTFTCSVLHEGLHNHHTEKSLSHSPGK
light: QIVLTQSPAIMSASPGEKVTMTCSARSSINYMHWFQQKPGTSPKRWIYDTSKLASGVPARFSGSGSGTSYSLTISNMEAEDAATYYCHQRNSYPFTFGSGTKLEIKRADAAPTVSIFPPSSEQLTSGGASVVCFLNNFYPKDINVKWKIDGSERQNGVLNSWTDQDSKDSTYSMSSTLTLTKDEYERHNSYTCEATHKTSTSPIVKSFNRNEC
For B1, the “IFNγ secretion (agonism)” value [4] was “no effect on IFN secretion”, the “CD86 binding to mCD28” value [5] was “none of antibody #1 (FIG. 15B), antibody #2 (FIG. 15C), or antibody #3 (FIG. 15D) blocked binding of CD86 to mCD28” and the “binding to mCD28 on the cell surface” value [6] was “do not bind CD28 on the cell surface”.

B2: CD80-Fc: extracellular domain of CD80 fused to an Fc moiety (protein)
chain: VIHVTKEVKEVATLSCGHNVSVEELAQTRIYWQKEKKMVLTMMSGDMNIWPEYKNRTIFDITNNLSIVILALRPSDEGTYECVVLKYEKDAFKREHLAEVTLSVKADFPTPSISDFEIPTSNIRRIICSTSGGFPEPHLSWLENGEELNAINTTVSQDPETELYAVSSKLDFNMTTNHSFMCLIKYGHLRVNQTFNWNTTKQEHFPDN
modifications: left off: a dimerising Fc or GST
notes: extracellular domain of CD80 fused to an Fc moiety
In the case of B2, the IFN gamma secretion ([4]; plate bound OKT3 2 μg/mL, CD80-Fc 2 μg/mL) is reported as “increased IFN gamma secretion”.

B3: antibody #1: sCD28 binding (sweeping) antibody; heavy chain SEQ ID NO: 42, light chain SEQ ID NO: 44 (antibody)
heavy: QIQLVQSGPELKKPGETVKISCKASGYTLTNYGMNWVKQAPGKGLKWMGWINTYTGKPTYVDDFKGRFAFSLETSASTAYLQINNLKNEDTATYFCARGDANQQFAYWGQGTLVTVSAAKTTPPSVYPLAPGSAAQTNSMVTLGCLVKGYFPEPVTVTWNSGSLSSGVHTFPAVLQSDLYTLSSSVTVPSSTWPSETVTCNVAHPASSTKVDKKIVPRDCGCKPCICTVPEVSSVFIFPPKPKDVLTITLTPKVTCVVVDISKDDPEVQFSWFVDDVEVHTAQTQPREEQFNSTFRSVSELPIMHQDWLNGKEFKCRVNSAAFPAPIEKTISKTKGRPKAPQVYTIPPPKEQMAKDKVSLTCMITDFFPEDITVEWQWNGQPAENYKNTQPIMDTDGSYFVYSKLNVQKSNWEAGNTFTCSVLHEGLHNHHTEKSLSHSPGK
light: DIKMTQSPSSMYASLGERVTITCKASQDINSYLSWFQQKPGKSPKTLIYRANRLVDGVPSRFSGSGSGQDYSLTISSLEYDDMGIYYCLQYDEFPPTFGAGTKLELKRADAAPTVSIFPPSSEQLTSGGASVVCFLNNFYPKDINVKWKIDGSERQNGVLNSWTDQDSKDSTYSMSSTLTLTKDEYERHNSYTCEATHKTSTSPIVKSFNRNEC
B3 was tested, and the “IFNγ secretion (agonism)” value [4] was “no effect on IFN secretion”, the “detection compared to CD28.2” value [7] was “nearly ten-times greater detection” and the “binding to sCD28” value ([7]; immobilized recombinant human sCD28) was “much stronger binding to sCD28”. For the same molecule, the “CD86 binding to mCD28” value [5] was “none of antibody #1 (FIG. 15B), antibody #2 (FIG. 15C), or antibody #3 (FIG. 15D) blocked binding of CD86 to mCD28”, the “binding to mCD28 on the cell surface” value [6] was “bound mCD28” and the “comparison with CD80, CD86 and ICOSL” value ([8]; about 1.5 μg each on beads) was “superior to the other three molecules tested”. The “sCD28 levels in plasma after beads” value ([8]; all cases) was “at or below the levels observed in the healthy sample”, the “sCD28 levels in plasma after beads” value ([8]; all samples except one melanoma sample) was “nearly undetectable levels” and the “removal of sCD28 from plasma” value ([8]; cancer patient plasma, 0.125-2 μg antibody on beads, 37° C. 2 hours) was “capable of binding and removing sCD28 from plasma”. For the same molecule, the “reduction of sCD28” value ([8]; one of the melanoma samples (FIG. 16D)) was “greater than 50%”.
